In US20240166747A1 (GlaxoSmithKline, published 2024):
Blank lines part the entries; values can stand above or below the binder they belong to.

Columns and labels:
[1] = target: T1, cynomolgus monkey CD96v2 expressed on cells (cynomolgus monkey, UniProt A0A2K5TWV6 22-569); assay: flow cytometry, CHO cells expressing cynomolgus CD96v2
T1 construct: also called CHO-cyCD96; Cyno CD96v2
T1 sequence: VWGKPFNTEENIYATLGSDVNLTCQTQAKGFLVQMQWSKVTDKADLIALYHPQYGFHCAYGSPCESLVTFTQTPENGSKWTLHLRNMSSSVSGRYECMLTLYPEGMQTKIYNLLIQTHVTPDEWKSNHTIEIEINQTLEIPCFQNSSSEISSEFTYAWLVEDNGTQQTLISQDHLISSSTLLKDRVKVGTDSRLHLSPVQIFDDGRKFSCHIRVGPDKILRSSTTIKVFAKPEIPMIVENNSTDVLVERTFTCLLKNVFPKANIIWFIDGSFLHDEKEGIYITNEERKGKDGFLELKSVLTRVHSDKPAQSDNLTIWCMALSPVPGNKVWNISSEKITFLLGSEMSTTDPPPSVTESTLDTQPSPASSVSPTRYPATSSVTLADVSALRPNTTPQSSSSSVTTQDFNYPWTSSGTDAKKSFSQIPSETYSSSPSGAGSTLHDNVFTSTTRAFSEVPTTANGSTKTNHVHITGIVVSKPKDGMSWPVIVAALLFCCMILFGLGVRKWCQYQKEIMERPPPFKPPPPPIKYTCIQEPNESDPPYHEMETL
Description: CHO cells expressing human CD96v2 or cynomolgus monkey CD96v2 were prepared in PBS. The cynomolgus monkey CD96v2 cells were stained with 1 μM violet proliferation dye (VPD450). […] The stained CHO-cyCD96 and unstained CHO-huCD96 cells were combined and added to wells of a 384-well assay plate together with dilutions of test anti-CD96 binding proteins for 1h at 4° C. Cells were further incubated with anti-IgG APC conjugate antibody and the amount of surface bound antibody on each of the CHO-cyCD96 and CHO-huCD96 cells was determined by flow cytometry. Median fluorescence intensity (MFI) values were fitted using a 4 parameter logistic model to calculate the EC50 of binding.

[2] = target: T2, native cynomolgus monkey CD96 on primary cynomolgus monkey T cells (cynomolgus monkey, UniProt A0A2K5TWV6 22-569); assay: flow cytometry on activated primary cynomolgus monkey T cells (PE median MFI), pooled donor
T2 construct: whole, on cells
T2 sequence: T1 sequence

[3] = target: T1, cynomolgus monkey CD96v2 expressed on …; assay: flow cytometry on transiently transfected HEK cells (normalised MFI), upper left panel
[4] = target: T3, human CD96v1 expressed on HEK cells (human, UniProt P40200 22-585); assay: as above
T3 construct: whole, on cells
T3 sequence (looked up): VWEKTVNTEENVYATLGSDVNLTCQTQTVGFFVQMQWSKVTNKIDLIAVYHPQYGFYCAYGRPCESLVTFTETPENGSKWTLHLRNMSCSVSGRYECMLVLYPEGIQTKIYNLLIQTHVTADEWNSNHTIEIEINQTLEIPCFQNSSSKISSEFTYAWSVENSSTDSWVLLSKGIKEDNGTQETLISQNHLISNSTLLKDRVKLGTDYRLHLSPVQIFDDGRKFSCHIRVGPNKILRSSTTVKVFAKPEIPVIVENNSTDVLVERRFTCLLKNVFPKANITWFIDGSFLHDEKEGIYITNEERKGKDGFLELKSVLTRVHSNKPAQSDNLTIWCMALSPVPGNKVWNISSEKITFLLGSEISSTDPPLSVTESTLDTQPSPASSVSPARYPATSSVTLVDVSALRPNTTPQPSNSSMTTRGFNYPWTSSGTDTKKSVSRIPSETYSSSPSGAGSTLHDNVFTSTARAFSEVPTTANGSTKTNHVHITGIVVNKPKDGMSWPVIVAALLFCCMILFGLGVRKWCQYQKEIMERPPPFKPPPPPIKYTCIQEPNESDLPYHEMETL

- EC50 [1]: 0.08 nM
B1: 42Y073-86F08-3 (antibody, V domains shown)
VH: QVQLVQSGAEVKKPGSSVKVSCKASGGTFVNYAISWVRQAPGQGLEWMGGIIPALGTANYAQKFQGRVTITADESTSTAYMELSSLRSEDTAVYYCARGAGYYGDKDPMDVWGQGTTVTVSS
VL: DIQLTQSPSSLSASVGDRVTITCRASQSISSYLNWYQQKPGKAPKLLIYAASSLQSGVPSRFSGSGSGTDFTLTISSLQPEDFATYYCQQVLHTITFGGGTKVEIK

- EC50 (read off the curve) [2]: ~0.06 nM
- EC50 (read off the curve) [3]: ~8 nM
- EC50 (read off the curve) [4]: ~4 nM
B2: 42Y073-86F08-66 (antibody, human IgG1, kappa)
heavy: not shown
light: DIQLTQSPSSLSASVGDRVTITCRASQSISSYLNWYQQKPGKAPKLLIYAASSLQSGVPSRFSGSGSGTDFTLTISSLQPEDFATYYCQQVLHTITFGGGTKVEIKRTVAAPSVFIFPPSDEQLKSGTASVVCLLNNFYPREAKVQWKVDNALQSGNSQESVTEQDSKDSTYSLSSTLTLSKADYEKHKVYACEVTHQGLSSPVTKSFNRGEC
notes: expressed in CHO or HEK cells; also called GSK 6097608; GSK6097608
